Assays:
[1] = system: Nurr1 over-expressing C17.2 clones; experiment: Treatment of Nurr1 clones with trophic factors, mitogens, cytokines and other agents; TH immunoreactivity; assay type: cell-based, mouse; details: Nurr1 clones without co-culture; factors alone or combined
Description: C17.2 cells were cotransfected with a CMX-Nurr1 expression vector (Perlmann, T. et al. Genes Dev. 9, 769-782 (1995)) and PGK-puromycin resistance plasmids (Nurr1 clones) or a PGK-puromycin alone (mock clones). For reporter assays, C17.2 parental cells were transfected with the Nurr1 expression vector, the reporter plasmid (NGFIB-binding response element (NBRE) triplet upstream of TK minimal promoter fused to firefly luciferase) and a pRSV-alkaline phosphatase plasmid at a 2:1:2 ratio.
C17.2 neural stem cells (Snyder, E. Y. et al. Cell 68, 33-51 (1992)) were maintained and passaged as previously described (Snyder, E. Y. et al. Cell 68, 33-51 (1992)). Ventral mesencephala from E16 rat embryos were dissected, mechanically dissociated and plated at a final density of 1×10^5 cells/cm^2 on poly-D-lysine coated culture wells in a defined, serum-free medium (N^2, consisting of a 1:1 mixture of F12 and DMEM containing insulin (10 ng/ml), transferrin (100 μg/ml), putrescine (100 μM), progesterone (20 nM), selenium (30 nM) glucose (6 mg/ml), and bovine serum albumin (1 mg/ml)). After 24 hours in vitro, co-cultures were initiated by directly plating 2.5−5×10^4 C17.2-derived cells into the primary cultures; all ages of cultures given use this point as 0 DIV. […] Purified Type 1 astrocytes were obtained from mixed glial cultures derived from various regions of P1 rats according to a standard protocol (McCarthy, K. D. et al. J. Cell Biol. 85, 890-902 (1980)). After replating into 6- or 12-well plates, astrocytes were grown to confluency in serum-containing media and changed to N2 medium. After 3-5 DIV, co-cultures were initiated in fresh N2 as described above. All factors were added once, at the initiation of co-culture (concentrations are noted in the Results and Discussion), with the exception of 5-bromodeoxyuridine (BrdU), which was added 4-6 hours prior to fixation. […]
Fixed cultures were incubated with one of the following antibodies, diluted appropriately in phosphate-buffered saline (PBS) containing 1% bovine serum albumin and 0.3% Triton-X 100: mouse anti-BrdU, 1:50 (DAKO, Denmark), mouse anti-β-tubulin, Type III (TuJ1), 1:250 (Sigma), mouse anti-TH, 1:1000 (Incstar, USA), rabbit anti-β-galactosidase, 1:250 (Cappel, USA) rabbit anti-GFAP, 1:500 (DAKO, Denmark), rabbit anti-AHD-2, 1:4000. […] Quantitative immunocytochemical data represent means and standard errors from 100-500 cells counted in each of 3-6 separate wells from 2-4 experiments. For quantitation of TH expression in co-cultures of primary and C-17.2-derived cells, TH was visualized with the brightfield AEC substrate, while β-gal was assessed using FITC, thus all data expressed as “% TH+” represents the number of TH+/β-gal+divided by total β-gal positive cells.

[2] = system: Nurr1-c42-derived dopaminergic neurons; experiment: Response of TH positive c42 cells in co-culture to neurotrophic factors; assay type: cell-based, mouse; details: 9 DIV, after SR11237 and bFGF induction; for neuritogenesis and/or hypertrophy: BDNF 30 ng/ml, CNTF 10 ng/ml, GDNF 10 ng/ml
Experimental: C17.2 neural stem cells (Snyder, E. Y. et al. Cell 68, 33-51 (1992)) were maintained and passaged as previously described (Snyder, E. Y. et al. Cell 68, 33-51 (1992)). Ventral mesencephala from E16 rat embryos were dissected, mechanically dissociated and plated at a final density of 1×10^5 cells/cm^2 on poly-D-lysine coated culture wells in a defined, serum-free medium (N^2, consisting of a 1:1 mixture of F12 and DMEM containing insulin (10 ng/ml), transferrin (100 μg/ml), putrescine (100 μM), progesterone (20 nM), selenium (30 nM) glucose (6 mg/ml), and bovine serum albumin (1 mg/ml)). After 24 hours in vitro, co-cultures were initiated by directly plating 2.5−5×10^4 C17.2-derived cells into the primary cultures; all ages of cultures given use this point as 0 DIV. […] Purified Type 1 astrocytes were obtained from mixed glial cultures derived from various regions of P1 rats according to a standard protocol (McCarthy, K. D. et al. J. Cell Biol. 85, 890-902 (1980)). After replating into 6- or 12-well plates, astrocytes were grown to confluency in serum-containing media and changed to N2 medium. After 3-5 DIV, co-cultures were initiated in fresh N2 as described above. All factors were added once, at the initiation of co-culture (concentrations are noted in the Results and Discussion), with the exception of 5-bromodeoxyuridine (BrdU), which was added 4-6 hours prior to fixation. Cultures were maintained in a humidified 5% CO2, 95% air incubator at 37 C and fixed after given time periods with 4% paraformaldehyde for 45 minutes for immunocytochemical analysis.
Fixed cultures were incubated with one of the following antibodies, diluted appropriately in phosphate-buffered saline (PBS) containing 1% bovine serum albumin and 0.3% Triton-X 100: mouse anti-BrdU, 1:50 (DAKO, Denmark), mouse anti-β-tubulin, Type III (TuJ1), 1:250 (Sigma), mouse anti-TH, 1:1000 (Incstar, USA), rabbit anti-β-galactosidase, 1:250 (Cappel, USA) rabbit anti-GFAP, 1:500 (DAKO, Denmark), rabbit anti-AHD-2, 1:4000. Incubations were either carried out at 4° C. overnight, or at room temperature for 1 hour. Both processes yielded similar results. After washing, cultures were incubated for 1-3 hr with appropriate secondary antibodies (biotinylated horse-anti-mouse IgG or goat-anti-rabbit IgG, Vector, USA), 1:100, in the same dilution buffer. […] Quantitative immunocytochemical data represent means and standard errors from 100-500 cells counted in each of 3-6 separate wells from 2-4 experiments. For quantitation of TH expression in co-cultures of primary and C-17.2-derived cells, TH was visualized with the brightfield AEC substrate, while β-gal was assessed using FITC, thus all data expressed as “% TH+” represents the number of TH+/β-gal+divided by total β-gal positive cells. […]

B1: BDNF: Brain Derived Neurotrophic Factor (protein, UniProt P23560 19-247, looked up)
Neurotrophic factor BDNF …: APMKEANIRGQGGLAYPGVRTHGTLESVNGPKAGSRGLTSLADTFEHVIEELLDEDQKVRPNEENNKDADLYTSRVMLSSQVPLEPPLLFLLEEYKNYLDAANMSMRVRRHSDPARRGELSVCDSISEWVTAADKKTAVDMSGGTVTVLEKVPVSKGQLKQYFYETKCNPMGYTKEGCRGIDKRHWNSQCRTTQSYVRALTMDSKKRIGWRFIRIDTSCVCTLTIKRGR
Question: With B1 as the molecule, how does the “induction of TH expression” value [1] read?
Answer: The value was “None of these factors induced TH expression in any of the clones”.

Question: What about the neuritogenesis and/or hypertrophy [2] of the same molecule?
Answer: The neuritogenesis and/or hypertrophy was “induced neuritogenesis and/or hypertrophy”.

B2: GDNF: Glial cell line-Derived Neurotrophic Factor (protein, UniProt P39905 78-211, looked up)
Glial cell line-derived …: SPDKQMAVLPRRERNRQAAAANPENSRGKGRRGQRGKNRGCVLTAIHLNVTDLGLGYETKEELIFRYCSGSCDAAETTYDKILKNLSRNRRLVSDKVGQACCRPIAFDDDLSFLDDNLVYHILRKHSAKRCGCI
Question: What does the source list for B2?
Answer: induction of TH expression [1]: None of these factors induced TH expression in any of the clones; neuritogenesis and/or hypertrophy [2]: induced neuritogenesis and/or hypertrophy

B3: NT-3: neurotrophin-3 (protein, UniProt P20783 139-257, looked up)
Neurotrophin-3: YAEHKSHRGEYSVCDSESLWVTDKSSAIDIRGHQVTVLGEIKTGNSPVKQYFYETRCKEARPVKNGCRGIDDKHWNSQCKTSQTYVRALTSENNKLVGWRWIRIDTSCVCALSRKIGRT
Question: Which results are given for B3?
Answer: induction of TH expression [1]: None of these factors induced TH expression in any of the clones; number of TH+ cells in the culture ([2]; compared to N2 control, NT-3 30 ng/ml): dramatically increased the number of TH+ cells

B4: CNTF: Ciliary Neurotrophic Factor (protein, UniProt P26441 1-200, looked up)
Ciliary neurotrophic factor: MAFTEHSPLTPHRRDLCSRSIWLARKIRSDLTALTESYVKHQGLNKNINLDSADGMPVASTDQWSELTEAERLQENLQAYRTFHVLLARLLEDQQVHFTPTEGDFHQAIHTLLLQVAAFAYQIEELMILLEYKIPRNEADGMPINVGDGGLFEKKLWGLKVLQELSQWTVRSIHDLRFISSHQTGIPARGSHYIANNKKM
Question: What does the source list for B4?
Answer: induction of TH expression [1]: None of these factors induced TH expression in any of the clones; neuritogenesis and/or hypertrophy [2]: induced neuritogenesis and/or hypertrophy

— patent US7465582B1, “Nurr-1 induction of a dopaminergic neuronal fate in a neural stem cell or neural progenitor cell in vitro” (Neuro Therapeutics AB, priority 2000, dated 2008)
